Results reported in the supplement of paper PMC10724198.
± gives the standard deviation of the averaged measurements.

Columns and labels:
Saccharomyces cerevisiae [1] = test: protein stability index of tFT-peptide fusion (C-terminal peptide) (PSI (0-1 scale)); higher = more stable (slower turnover); conditions: genetic background: wild type; temperature: 30 C
Saccharomyces cerevisiae [2] = test: as above
Description: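 MPS profiling in S. cerevisiae of the tFT-X12 degron library: putative degron peptides plus stable controls, 12 aa, fused to the C-terminus of a sfGFP-mCherry timer. Cells are FACS-sorted into 8 mCherry/sfGFP bins and deep-sequenced. PSI runs from 0 (unstable) to 1 (stable). Backgrounds are wild type, das1Δ and doa10Δ at 30 °C, and wild type, das1Δ, cdc34-1 and cdc53-1 at 37 °C; 2-3 technical replicates each.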

[3] = genetic background: cdc34-1, temperature: 37 C
[4] = genetic background: cdc53-1, temperature: 37 C
[5] = genetic background: das1 deletion, temperature: 30 C
[6] = genetic background: das1 deletion, temperature: 37 C
[7] = genetic background: doa10 deletion, temperature: 30 C
[8] = genetic background: wild type, temperature: 30 C
[9] = genetic background: wild type, temperature: 37 C
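Note: PSI is a weighted mean of sequencing reads over stability bins, variants kept only with over 10 reads, mCherry proximal and sfGFP distal, peptide attached via GGGS linker.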

Row | Sequence | protein stability index (Saccharomyces cerevisiae [1]) | protein stability index (Saccharomyces cerevisiae [2]; [3]) | protein stability index (Saccharomyces cerevisiae [2]; [4]) | protein stability index (Saccharomyces cerevisiae [2]; [5]) | protein stability index (Saccharomyces cerevisiae [2]; [6]) | protein stability index (Saccharomyces cerevisiae [2]; [7]) | protein stability index (Saccharomyces cerevisiae [2]; [8]) | protein stability index (Saccharomyces cerevisiae [2]; [9])
1 | FILATGKGRWVV | 0.333 ± 0.1 | 0.686 ± 0.044 | 0.776 ± 0.017 | 0.636 ± 0.0087 | 0.7432 ± 0.0033 | 0.266 ± 0.0031 | 0.306 ± 0.029 | 0.532 ± 0.024
2 | FILSLSFVFSRP | 0.405 ± 0.073 | 0.415 ± 0.037 | 0.501 ± 0.011 | 0.425 ± 0.027 | 0.462 ± 0.012 | 0.452 ± 0.039 | 0.441 ± 0.046 | 0.441 ± 0.026
3 | FIRLTFLRLSCI | 0.255 ± 0.022 | 0.546 ± 0.021 | 0.623 ± 0.03 | 0.51 ± 0.034 | 0.638 ± 0.031 | 0.183 ± 0.015 | 0.199 ± 0.0096 | 0.391 ± 0.0049
4 | FLASLCFFPLLC | 0.456 ± 0.014 | 0.388 ± 0.041 | 0.413 ± 0.031 | 0.42 ± 0.027 | 0.5574 ± 0.0039 | 0.496 ± 0.024 | 0.372 ± 0.02 | 0.5038 ± 0.0034
5 | FLAWSVGILCRV | 0.317 ± 0.018 | 0.228 ± 0.023 | 0.225 ± 0.022 | 0.238 ± 0.036 | 0.351 ± 0.011 | 0.213 ± 0.0026 | 0.224 ± 0.041 | 0.318 ± 0.023
6 | FLCLFFLAVIKL | 0.383 ± 0.028 | 0.241 ± 0.018 | 0.188 ± 0.012 | 0.344 ± 0.034 | 0.412 ± 0.031 | 0.502 ± 0.007 | 0.309 ± 0.037 | 0.356 ± 0.013
7 | FLFLLLFLLLCC | 0.407 ± 0.0033 | 0.467 ± 0.0069 | 0.488 ± 0.0017 | 0.377 ± 0.03 | 0.534 ± 0.049 | 0.349 ± 0.011 | 0.318 ± 0.033 | 0.4634 ± 0.00047
8 | FLFPFLSVLFLL | 0.245 ± 0.034 | 0.477 ± 0.014 | 0.506 ± 0.0071 | 0.479 ± 0.03 | 0.5591 ± 0.0049 | 0.176 ± 0.0088 | 0.176 ± 0.0083 | 0.232 ± 0.014
9 | FLFSVVFFFFSL | 0.421 ± 0.066 | 0.368 ± 0.028 | 0.4558 ± 0.0032 | 0.353 ± 0.021 | 0.5154 ± 0.003 | 0.322 ± 0.011 | 0.35 ± 0.025 | 0.4586 ± 0.0045
10 | FLLEVFVLGRTL | 0.4742 ± 0.0019 | 0.627 ± 0.0076 | 0.653 ± 0.023 | 0.43 ± 0.018 | 0.597 ± 0.0081 | 0.402 ± 0.032 | 0.432 ± 0.022 | 0.577 ± 0.012
11 | FLLFSFFFFFFF | 0.482 ± 0.011 | 0.44531 ± 9.3e-05 | 0.4388 ± 0.0028 | 0.409 ± 0.041 | 0.52 ± 0.013 | 0.489 ± 0.037 | 0.384 ± 0.021 | 0.488 ± 0.008
12 | FLLPILSSSPVL | 0.727 ± 0.035 | 0.692 ± 0.063 | 0.742 ± 0.019 | 0.657 ± 0.011 | 0.735 ± 0.012 | 0.685 ± 0.019 | 0.667 ± 0.025 | 0.6913 ± 0.0023
13 | FLRLSFLIFPLH | 0.498 ± 0.02 | 0.546 ± 0.029 | 0.6295 ± 0.00058 | 0.471 ± 0.03 | 0.583 ± 0.0021 | 0.396 ± 0.026 | 0.409 ± 0.023 | 0.546 ± 0.029
14 | FLSCSRRPLRCW | 0.463 ± 0.027 | 0.40972 ± 0.00036 | 0.445 ± 0.048 | 0.303 ± 0.035 | 0.4962 ± 0.00098 | 0.273 ± 0.0051 | 0.301 ± 0.032 | 0.469 ± 0.021
15 | FMPFSLLALFVW | 0.343 ± 0.017 | 0.286 ± 0.00069 | 0.318 ± 0.0033 | 0.267 ± 0.02 | 0.372 ± 0.0064 | 0.2321 ± 0.0021 | 0.241 ± 0.041 | 0.328 ± 0.0069
16 | FNLTCLLISFFN | 0.519 ± 0.045 | 0.593 ± 0.02 | 0.609 ± 0.063 | 0.453 ± 0.036 | 0.658 ± 0.0081 | 0.368 ± 0.005 | 0.417 ± 0.015 | 0.553 ± 0.028
17 | FPCIFFFCLFIL | 0.271 ± 0.05 | 0.209 ± 0.039 | 0.197 ± 0.0039 | 0.251 ± 0.027 | 0.337 ± 0.025 | 0.31 ± 0.013 | 0.203 ± 0.021 | 0.276 ± 0.016
18 | FPLGMFWVCFFV | 0.264 ± 0.015 | 0.423 ± 0.026 | 0.464 ± 0.0058 | 0.357 ± 0.03 | 0.512 ± 0.025 | 0.181 ± 0.015 | 0.207 ± 0.023 | 0.357 ± 0.015
19 | FPYARHLSVLLL | 0.472 ± 0.029 | 0.598 ± 0.04 | 0.662 ± 0.02 | 0.564 ± 0.018 | 0.681 ± 0.022 | 0.371 ± 0.0079 | 0.392 ± 0.025 | 0.54 ± 0.007
20 | FRFSCLFSLFLS | 0.224 ± 0.011 | 0.413 ± 0.072 | 0.499 ± 0.01 | 0.478 ± 0.029 | 0.5168 ± 0.0051 | 0.169 ± 0.0091 | 0.143 ± 0.036 | 0.24 ± 0.025

Row | Sequence | protein stability index (Saccharomyces cerevisiae [1]) | protein stability index (Saccharomyces cerevisiae [2]; [3]) | protein stability index (Saccharomyces cerevisiae [2]; [4]) | protein stability index (Saccharomyces cerevisiae [2]; [5]) | protein stability index (Saccharomyces cerevisiae [2]; [6]) | protein stability index (Saccharomyces cerevisiae [2]; [7]) | protein stability index (Saccharomyces cerevisiae [2]; [8]) | protein stability index (Saccharomyces cerevisiae [2]; [9])
21 | FRLFSLWFCWVR | 0.348 ± 0.015 | 0.13 ± 0.0073 | 0.0999 ± 0.022 | 0.227 ± 0.025 | 0.297 ± 0.014 | 0.365 ± 0.013 | 0.212 ± 0.034 | 0.26 ± 0.025
22 | FRVSAFFLPFLS | 0.4 ± 0.013 | 0.652 ± 0.031 | 0.715 ± 0.008 | 0.655 ± 0.022 | 0.735 ± 0.015 | 0.226 ± 0.011 | 0.246 ± 0.022 | 0.486 ± 0.048
23 | FSFLLYASLVTH | 0.314 ± 0.015 | 0.298 ± 0.016 | 0.343 ± 0.032 | 0.307 ± 0.021 | 0.333 ± 0.021 | 0.322 ± 0.0038 | 0.297 ± 0.013 | 0.3145 ± 0.00081
24 | FSGFPLTLSPPL | 0.7224 ± 0.0042 | 0.717 ± 0.029 | 0.7715 ± 0.0044 | 0.67 ± 0.024 | 0.753 ± 0.013 | 0.685 ± 0.0098 | 0.679 ± 0.019 | 0.73 ± 0.018
25 | FSVLLLANFCFF | 0.482 ± 0.0056 | 0.498 ± 0.031 | 0.516 ± 0.0072 | 0.409 ± 0.037 | 0.554 ± 0.015 | 0.363 ± 0.016 | 0.407 ± 0.043 | 0.528 ± 0.015
26 | FSVLRLVIVSLL | 0.0995 ± 0.012 | 0.227 ± 0.012 | 0.503 ± 0.067 | 0.35 ± 0.037 | 0.537 ± 0.019 | 0.0564 ± 0.004 | 0.0846 ± 0.04 | 0.0783 ± 0.029
27 | FSVSYFRLVRLC | 0.0191 ± 0.027 | 0.39 ± 0.017 | 0.572 ± 0.0077 | 0.458 ± 0.032 | 0.602 ± 0.0083 | 0.0722 ± 0.003 | 0.0819 ± 0.038 | 0.08731 ± 0.00027
28 | FTNLDYTKEKNN | 0.29 ± 0.017 | 0.423 ± 0.15 | 0.6798 ± 0.0014 | 0.623 ± 0.052 | 0.708 ± 0.042 | 0.134 ± 0.012 | 0.146 ± 0.025 | 0.178 ± 0.0045
29 | FVIVSSCIGYAL | 0.499 ± 0.015 | 0.603 ± 0.039 | 0.641 ± 0.036 | 0.451 ± 0.028 | 0.584 ± 0.0076 | 0.4365 ± 0.0039 | 0.46 ± 0.025 | 0.561 ± 0.032
30 | FVLLSVCFFGCL | 0.442 ± 0.024 | 0.306 ± 0.011 | 0.4219 ± 0.0028 | 0.336 ± 0.024 | 0.495 ± 0.017 | 0.301 ± 0.0069 | 0.327 ± 0.004 | 0.438 ± 0.044
31 | FVMLSFLVSSLP | 0.4255 ± 0.0037 | 0.404 ± 0.006 | 0.489 ± 0.039 | 0.346 ± 0.028 | 0.513 ± 0.006 | 0.3038 ± 0.0018 | 0.34 ± 0.017 | 0.495 ± 0.0055
32 | FVMTYCLMSVSK | 0.0465 ± 0.035 | 0.0323 ± 0.018 | 0.0364 ± 0.002 | 0.0746 ± 0.02 | 0.0531 ± 0.038 | 0.063 ± 0.0057 | 0.07 ± 0.016 | 0.0478 ± 0.025
33 | FVRSVFFCVSVG | 0.469 ± 0.057 | 0.498 ± 0.037 | 0.531 ± 0.017 | 0.396 ± 0.029 | 0.548 ± 0.019 | 0.34 ± 0.012 | 0.373 ± 0.027 | 0.5 ± 0.018
34 | FVWAVGLVSASV | 0.503 ± 0.01 | 0.507 ± 0.0064 | 0.527 ± 0.0082 | 0.402 ± 0.022 | 0.561 ± 0.0067 | 0.379 ± 0.013 | 0.414 ± 0.03 | 0.52 ± 0.0091
35 | FWLFAFVIRKHI | 0.2057 ± 0.00034 | 0.286 ± 0.019 | 0.404 ± 0.013 | 0.324 ± 0.033 | 0.511 ± 0.007 | 0.10098 ± 0.0001 | 0.089 ± 0.0045 | 0.0641 ± 0.012
36 | FYSLYLSLVCFN | 0.224 ± 0.0011 | 0.345 ± 0.015 | 0.389 ± 0.0083 | 0.301 ± 0.034 | 0.454 ± 0.0076 | 0.161 ± 0.01 | 0.127 ± 0.016 | 0.256 ± 0.014
37 | GAVKCLVCLAVW | 0.404 ± 0.022 | 0.282 ± 0.0035 | 0.365 ± 0.054 | 0.309 ± 0.032 | 0.4138 ± 0.0017 | 0.26 ± 0.011 | 0.3 ± 0.026 | 0.3844 ± 0.00071
38 | GCGFSFFHIVVL | 0.121 ± 0.0051 | 0.111 ± 0.0053 | 0.113 ± 0.0037 | 0.147 ± 0.04 | 0.256 ± 0.024 | 0.416 ± 0.0071 | 0.152 ± 0.022 | 0.225 ± 0.0047
39 | GCLFMQVSLFWR | 0.286 ± 0.028 | 0.0959 ± 0.027 | 0.164 ± 0.018 | 0.147 ± 0.038 | 0.295 ± 0.023 | 0.177 ± 0.0049 | 0.138 ± 0.044 | 0.26 ± 0.017
